Results: patent US20050271676A1, “Inducing cellular immune responses to human immunodeficiency virus-1 using peptide and nucleic acid compositions” (Epimmune Inc., priority 1993, published 2005)
No end group written: not given here.

Tests used:
[1] = molecular target: T1, HLA-A*0301 (Homo sapiens, UniProt P04439); assay: purified HLA class I binding assay, A*0301; details: for A0301 (HIV A03 Motif Peptides with Binding Information): HIV POL-derived A03 motif peptides, binding value for purified HLA-A*0301, unit not given
T1 construct: endogenous in cells; host or cells: GM3107

[2] = molecular target: HLA-A*1101 (Homo sapiens, UniProt P04439, A114D/D185E/E176A/F33Y/L180Q/S129P/T187R); assay: purified HLA class I binding assay, A*1101
[3] = molecular target: T2, HLA-B*0702 (Homo sapiens, UniProt P01889); assay: purified HLA class I binding assay, B*0702; details: for B*0702 binding (HIV B07 Super Motif Peptides with Binding Information): purified HLA-B*0702, binding value without unit; for B*0702 (binding information): HIV B07 supermotif peptides, binding value for purified HLA-B*0702, unit not given
T2 construct: endogenous in cells; host or cells: GM3107

[4] = molecular target: HLA-A*0201 (Homo sapiens, UniProt P04439, D140Y/D185E/D98H/E176V/E277Q/G131W/G231S/I119V/I121R/I166T/I218V/L300P/L318F/N151K/N90K/P208A/P217A/Q86G/Q94H/R138H/R169H/T345S); assay: purified HLA class I binding assay, A*0201
[5] = HIV A03 motif peptides, Table XVI, binding value unit not given
[6] = Table IX, HIV A03 super motif peptides, binding value, unit not given
[7] = Table XVI, binding value for purified HLA-A*0301, unit not given
[8] = HIV A11 motif peptides, Table XVII, unit not given
[9] = Table XVII, HIV A11 motif peptides, binding value for A*1101, printed without unit
[10] = Table XVII, HIV A11 motif peptides, binding value A*1101, unit not given
[11] = HIV A03 supermotif peptides, binding value, no unit given
[12] = Table XVI, HIV POL-derived peptides, unit not given
[13] = HIV A03 supermotif peptides, Table IX, unit not given
[14] = HIV A02 Super Motif Peptides with Binding Information, Table VIII, unit not given
[15] = binding value to purified HLA-A*1101 in Table XVII, unit not given
[16] = Table XVII, HIV A11 motif peptides, binding value for purified HLA-A*1101, unit not given

KIWPSIIKGR
A0301 (binding information) [1, 5]: 0.0770

KLVDFRELNK
A*0301 binding information [1, 6]: 0.5100 | A0301 (binding information, HIV A03 motif peptides) [1, 7]: 0.5100 | A*1101 (binding information) [2, 8]: 0.0900 | A*1101 (binding information) [2, 6]: 0.0900

KPCVKLTPLC
B*0702 binding (HIV B07 Super Motif Peptides with Binding Information) [3]: 0.0004

KTKGIIRGSII
A*1101 (binding information) [2, 9]: 0.0001

KVKQWPLTEE
A0301 (HIV A03 Motif Peptides with Binding Information) [1]: 0.0750 | A*1101 (binding information) [2, 10]: 0.0330

KVYLAWVPAII
A0301 binding ([1]; HIV A03 motif peptides, Table XVI, column A0301, unit not given): 8.6000

KVYLAWVPAIIK
A*0301 binding information [1, 11]: 8.6000 | A*1101 (binding information) [2, 11]: 2.3000

LGIIQAQVDK
A0301 (binding information, HIV A03 motif peptides) [1, 12]: 0.0007

LGIPIIPAGLK
A*1101 (binding information) [2, 10]: 0.0150

LLQLIVWGIK
A*0301 binding information [1, 13]: 0.0055 | A*1101 (binding information) [2, 13]: 0.0110

LPEKDSWTV
B*0702 (binding information) [3]: 0.0001

LPGRWKPKM
B*0702 (binding information) [3]: 0.0038

LPQGWKGSPA
B*0702 (binding information) [3]: 0.0120

LTEDRWNKPQ
A0301 (binding information) ([1]; HIV A03 motif peptides, Table XVI, unit not given): 0.0390 | A*1101 (binding information) [2, 9]: 0.0130

LVITFYWGL
A*0201 (HIV A02 Super Motif Peptides with Binding Information) ([4]; binding value for purified HLA-A*0201 as printed in Table VIII, unit not given): 0.0031

LYSAGIRK
A*1101 (HIV A11 Motif Peptides with Binding Information) ([2]; binding to purified HLA-A*1101, unit not given): 0.0054

LYSAGIRKYL
A*0201 (binding information) ([4]; Table VIII, HIV A02 supermotif peptides, unit not given): 0.0002

MGYELIIPDK
A0301 (binding information, HIV A03 motif peptides) [1, 7]: 0.0640

MLNTVGGIIQA
A0301 (binding information) ([1]; HIV A03 motif peptides, Table XVI, binding value to purified HLA-A*0301, unit not given): 0.0005 | A*0201 binding (HIV A02 Super Motif Peptides with Binding Information) ([4]; purified HLA-A*0201, unit not given): 0.0022

MTKILIEPFR
A*1101 (binding information) [2, 10]: 0.0160

MVEQMIIEDI
A*0201 (binding information) [4, 14]: 0.0002

MVEQMIIEDII
A*0201 (binding information) ([4]; HIV A02 super motif peptides, Table VIII, unit not given): 0.0001

MVIIQAISPR
A0301 (binding information) [1, 5]: 0.1800 | A*1101 binding ([2]; HIV A11 motif peptides (GAG), Table XVII, unit not given): 0.0670

NPDIVIYQYM
B*0702 (binding information) [3]: 0.0005

NPQSQGVVES
B*0702 (binding information) [3]: 0.0001

NTPVPAIK
A*1101 (HIV A11 Motif Peptides with Binding Information) [2, 15]: 0.0003

NVWAIIIACV
A*0201 (binding information) [4, 14]: 0.0002

PCIMDGPKVK
A*1101 (binding information) [2, 10]: 0.0001

QIYQEPPKNLK
A*0301 binding information [1, 11]: 0.2800 | A*1101 (binding information) [2, 11]: 0.2900

QIYQIEPFKNLK
A0301 (binding information, HIV A03 motif peptides) [1, 12]: 0.2800

QLDCTIILEGK
A0301 (binding information, HIV A03 motif peptides) [1, 7]: 0.0010 | A*1101 (binding information) [2, 10]: 0.0003

QMIIEDIISL
A*0201 (binding information) [4, 14]: 0.0023

QPDKSESEIV
B*0702 (binding information) [3]: 0.0002

QVRDQAEIILK
A0301 (HIV A03 Motif Peptides with Binding Information) [1]: 0.0089

RIVELLGRR [1273.04]
IC50 [1]: 200 nM | IC50 [2]: 600 nM

SDLEIGQIIR
A*1101 (binding information) [2, 10]: 0.0001

SPRTLNAWYK
B*0702 binding (HIV B07 Super Motif Peptides with Binding Information) [3]: 0.0076

SPTRKELQVW
B*0702 (binding information) [3]: 0.0025

STVQCTIIGI
A*0201 (binding information) [4, 14]: 0.001

TACQGVGGPG
A0301 (binding information) [1, 5]: 0.0001 | A*1101 (binding information) [2, 8]: 0.0001

TAVQMAVFIII
A0301 (binding information, HIV A03 motif peptides) [1, 7]: 0.0004 | A*1101 (binding information) [2, 10]: 0.0110

TPGIRYQYNV
B*0702 (binding information) [3]: 0.0004

TPPLVKLWYQ
B*0702 (binding information) [3]: 0.0001

TTPDKKIIQK
A0301 (HIV A03 Motif Peptides with Binding Information) [1]: 0.0002

TYQCTIIGIK
A*1101 (binding information) [2, 16]: 0.0460

VASCDKCQLK
A0301 (HIV A03 Motif Peptides with Binding Information) [1]: 0.0004 | A*0301 binding information [1, 6]: 0.0004 | A*1101 (binding information) [2, 6]: 0.0004 | A*1101 (binding information) [2, 10]: 0.0004

VAVIIVASGY
A0301 (binding information, HIV A03 motif peptides) [1, 7]: 0.0004 | A*1101 (binding information) [2, 10]: 0.0001

VIQDNSEIKV
A*0201 binding ([4]; HIV A02 supermotif peptides, Table VIII, binding value with unit not given): 0.0013

VPIDPNPQEV
B*0702 binding (HIV B07 Super Motif Peptides with Binding Information) [3]: 0.0008

VPLDKDFRKY
B*0702 (binding information) [3]: 0.0002

VPRRKAKII
B*0702 (binding information) [3]: 0.4800

VPVWKEATTT
B*0702 binding (HIV B07 Super Motif Peptides with Binding Information) [3]: 0.0022

VTVYYGVPVW
A0301 (binding information, HIV A03 motif peptides) ([1]; purified HLA-A*0301 binding value as printed in Table XVI, unit not given): 0.8600 | A*1101 (binding information) [2, 16]: 4.1000

WATIIACVPT
A*0201 (binding information) [4, 14]: 0.0002

WTVQVIPLPEK
A0301 (binding information) ([1]; HIV A03 motif peptides, binding value to HLA-A*0301 as printed, no unit given): 0.0011

WTYQIYQEPF
A0301 (binding information, HIV A03 motif peptides) [1, 12]: 0.9200 | A*1101 (HIV A11 Motif Peptides with Binding Information) [2, 15]: 0.0540

YVDRIFYKTLR
A*0301 binding information [1, 13]: 0.0003 | A*1101 (binding information) [2, 13]: 0.0006
